Reference: the Human Domainome abundance scans (Beltran et al. 2025)
± gives the uncertainty stated by the source.

B1: Connector enhancer of kinase suppressor of ras 2, residues 9 to 71; numbered along this chain, Q8WXI2 (parent)
chain: SKWSPSQVVDWMKGLDDCLQQYIKNFEREKISGDQLLRITHQELEDLGVSRIGHQELILEAVD

Variants of: B1
Assay: abundance fitness (aPCA) (normalised: wild type 0, dead -1); higher = more abundant; growth selection in yeast, the domain comes from the species named
Conditions: Homo sapiens

Abundance fitness of substitutions, site by site:
I23: N -0.475 ± 0.044 | V -0.008 ± 0.023 | Q -0.378 ± 0.044 | H -0.393 ± 0.082 | A 0.006 ± 0.027 | E -0.412 ± 0.036 | P -0.673 ± 0.059 | F -0.765 ± 0.092 | W -0.313 ± 0.033 | C -0.014 ± 0.035 | L -0.163 ± 0.028 | G -0.344 ± 0.024 | S -0.247 ± 0.029 | R -0.18 ± 0.021 | Y -0.447 ± 0.053 | K -0.361 ± 0.058 | D -0.698 ± 0.07 | M -0.34 ± 0.05
L37: S -0.072 ± 0.027 | A -0.073 ± 0.023 | H -0.158 ± 0.071 | W -0.349 ± 0.045 | K -0.132 ± 0.047 | C -0.108 ± 0.041 | R -0.145 ± 0.023 | M 0.012 ± 0.049 | P -0.407 ± 0.041 | Y -0.28 ± 0.043 | Q -0.151 ± 0.038 | N -0.154 ± 0.047 | D -0.254 ± 0.031 | V -0.078 ± 0.025 | T -0.155 ± 0.037 | G -0.168 ± 0.028 | E -0.193 ± 0.031 | F -0.239 ± 0.052
I31: W -0.74 ± 0.056 | N -0.732 ± 0.07 | A -0.914 ± 0.043 | Q -0.87 ± 0.082 | C -0.99 ± 0.1 | D -0.931 ± 0.1 | Y -0.948 ± 0.25 | R -0.873 ± 0.041 | L -0.26 ± 0.03 | V -0.053 ± 0.027 | F -0.573 ± 0.077 | E -0.827 ± 0.051 | M -0.361 ± 0.028 | K -0.886 ± 0.063 | H -0.71 ± 0.069 | P -0.744 ± 0.061
E29: K 0.02 ± 0.05 | M -0.054 ± 0.041 | F -0.148 ± 0.036 | H 0.003 ± 0.044 | L -0.179 ± 0.024 | S -0.043 ± 0.033 | Y -0.102 ± 0.046 | Q -0.005 ± 0.035 | W -0.215 ± 0.03 | N -0.143 ± 0.057 | T -0.139 ± 0.037 | G -0.04 ± 0.029 | R -0.025 ± 0.023
R38: D -0.163 ± 0.05 | Q -0.134 ± 0.039 | N -0.098 ± 0.065 | M -0.307 ± 0.05 | G -0.106 ± 0.026 | Y -0.446 ± 0.093 | C -0.189 ± 0.034 | H -0.061 ± 0.043 | L -0.377 ± 0.029 | P -0.681 ± 0.055 | K -0.002 ± 0.033 | E -0.302 ± 0.053 | A -0.031 ± 0.04 | I -0.543 ± 0.046 | F -0.416 ± 0.049 | W -0.549 ± 0.038
D34: Y -0.12 ± 0.037 | G -0.109 ± 0.03 | H -0.168 ± 0.071 | P -0.105 ± 0.031 | I -0.213 ± 0.055 | S -0.06 ± 0.027 | N -0.087 ± 0.039 | K -0.056 ± 0.057 | M -0.108 ± 0.037 | V -0.159 ± 0.029 | R -0.075 ± 0.021 | W -0.142 ± 0.038 | F -0.281 ± 0.056 | E 0.055 ± 0.037 | L -0.128 ± 0.025 | Q -0.031 ± 0.052 | T -0.118 ± 0.037 | A 0.037 ± 0.028
F26: T -0.774 ± 0.069 | A -0.824 ± 0.041 | I -0.356 ± 0.12 | M -0.709 ± 0.062 | H -0.929 ± 0.081 | Q -0.772 ± 0.05 | R -0.867 ± 0.039 | S -0.779 ± 0.025 | K -0.852 ± 0.027 | V -0.485 ± 0.027 | G -0.727 ± 0.035 | Y -0.908 ± 0.09 | P -0.592 ± 0.063 | W -0.785 ± 0.052 | N -0.893 ± 0.13
Y22: V -0.806 ± 0.034 | T -0.653 ± 0.035 | W -0.632 ± 0.06
I39: G -0.699 ± 0.034 | V -0.22 ± 0.03 | D -0.569 ± 0.075 | C -0.416 ± 0.052 | W -0.737 ± 0.04 | F -0.254 ± 0.045 | E -0.607 ± 0.048 | H -0.65 ± 0.071 | Y -0.632 ± 0.064 | S -0.537 ± 0.037 | T -0.455 ± 0.042 | A -0.424 ± 0.04 | L 0.01 ± 0.026 | M 0.009 ± 0.034 | R -0.717 ± 0.03 | Q -0.653 ± 0.032 | K -0.576 ± 0.047 | N -0.67 ± 0.053
L36: P -0.928 ± 0.069 | K -0.775 ± 0.075 | V -0.713 ± 0.044 | T -0.88 ± 0.06 | Q -0.898 ± 0.087 | H -0.971 ± 0.12 | D -0.847 ± 0.048 | A -0.958 ± 0.056 | I -0.325 ± 0.041 | W -1.04 ± 0.12 | Y -1.01 ± 0.086 | G -0.845 ± 0.052 | S -0.846 ± 0.04 | R -0.82 ± 0.038 | N -0.854 ± 0.075 | E -0.769 ± 0.039 | F -0.715 ± 0.091 | M -0.334 ± 0.045 | C -0.961 ± 0.089
T40: L -1.07 ± 0.076 | A -0.499 ± 0.034 | K -0.186 ± 0.042 | H -0.6 ± 0.076 | V -0.877 ± 0.04 | E -0.548 ± 0.038 | M -0.907 ± 0.082 | Q -0.437 ± 0.038 | F -1.21 ± 0.37 | P -0.784 ± 0.05 | W -0.957 ± 0.07 | D -0.327 ± 0.091 | I -0.893 ± 0.093 | C -0.426 ± 0.04 | N -0.201 ± 0.052 | G -0.12 ± 0.027
S32: H -0.361 ± 0.082 | R -0.142 ± 0.022 | F -0.493 ± 0.041 | M -0.394 ± 0.042 | T 0.022 ± 0.03 | W -0.322 ± 0.028 | A -0.077 ± 0.03 | P -0.624 ± 0.053 | N 0.024 ± 0.043 | V -0.475 ± 0.037 | E -0.341 ± 0.042 | C -0.029 ± 0.047 | Y -0.264 ± 0.056 | G -0.074 ± 0.022 | L -0.706 ± 0.039 | I -0.589 ± 0.086
G33: Q -0.559 ± 0.051 | P -0.84 ± 0.069 | L -0.423 ± 0.034 | Y -0.257 ± 0.039 | T -0.645 ± 0.046 | C -0.833 ± 0.07 | M -0.236 ± 0.046 | D -0.906 ± 0.067 | H -0.669 ± 0.073 | R -0.631 ± 0.028 | V -0.417 ± 0.041 | F -0.198 ± 0.05 | A -0.745 ± 0.05 | K -0.462 ± 0.07 | N -0.947 ± 0.12 | I -0.387 ± 0.1 | E -0.855 ± 0.092 | S -0.668 ± 0.04 | W -0.216 ± 0.045
E27: W -0.311 ± 0.034 | Y -0.316 ± 0.079 | I -0.436 ± 0.17 | M -0.205 ± 0.058 | R -0.173 ± 0.023 | T -0.197 ± 0.033 | S -0.258 ± 0.03 | N -0.535 ± 0.047 | P -0.703 ± 0.065 | F -0.47 ± 0.16 | G -0.514 ± 0.026 | L -0.207 ± 0.03 | V -0.261 ± 0.027 | D -0.248 ± 0.041 | Q -0.101 ± 0.038 | H -0.376 ± 0.054 | C -0.406 ± 0.038 | A -0.075 ± 0.029
E43: F -0.455 ± 0.042 | N -0.121 ± 0.035 | R 0.006 ± 0.023 | H -0.179 ± 0.049 | M -0.165 ± 0.042 | G -0.131 ± 0.034 | I -0.46 ± 0.045 | Q 0.03 ± 0.037 | C -0.332 ± 0.036 | D 0.011 ± 0.034 | K -0.003 ± 0.055 | L -0.41 ± 0.03 | S -0.137 ± 0.026 | A -0.143 ± 0.03 | P -0.987 ± 0.077
R28: A -0.052 ± 0.026 | M -0.094 ± 0.03 | N -0.067 ± 0.051 | K -0.063 ± 0.033 | D -0.043 ± 0.052 | L -0.15 ± 0.023 | I -0.099 ± 0.063 | E -0.1 ± 0.043 | Y -0.28 ± 0.069 | S -0.056 ± 0.026 | W -0.638 ± 0.044 | F -0.453 ± 0.1 | V -0.159 ± 0.031 | G -0.262 ± 0.031 | T -0.058 ± 0.032
Q35: N -0.119 ± 0.12 | F -0.33 ± 0.058 | M -0.152 ± 0.049 | W -0.523 ± 0.055 | R 0.033 ± 0.03 | S -0.291 ± 0.039 | Y -0.39 ± 0.074 | G -0.485 ± 0.033 | P -0.903 ± 0.074 | E -0.172 ± 0.057 | V -0.19 ± 0.037 | D -0.158 ± 0.05 | C -0.328 ± 0.061 | K -0.054 ± 0.057 | L -0.392 ± 0.039 | A -0.088 ± 0.033
H41: D -0.229 ± 0.052 | N -0.097 ± 0.04 | P -0.002 ± 0.033 | K 0.029 ± 0.034 | E -0.076 ± 0.035 | Y -0.075 ± 0.049 | L -0.234 ± 0.027 | V -0.06 ± 0.03 | S -0.007 ± 0.027 | M -0.125 ± 0.047 | G -0.077 ± 0.025 | Q -0.037 ± 0.033 | T -0.031 ± 0.033 | I -0.184 ± 0.051 | C -0.157 ± 0.054
K30: W -0.572 ± 0.063 | N -0.075 ± 0.057 | D -0.225 ± 0.035 | V -0.519 ± 0.031 | M -0.113 ± 0.041 | H -0.04 ± 0.043 | A -0.069 ± 0.027 | Q -0.036 ± 0.037 | C -0.097 ± 0.028 | L -0.225 ± 0.028 | T -0.419 ± 0.04 | G -0.048 ± 0.026 | F -0.324 ± 0.04 | Y -0.391 ± 0.053 | S -0.087 ± 0.027 | E -0.105 ± 0.038
Q42: D -0.348 ± 0.046 | F -0.618 ± 0.077 | K 0.002 ± 0.051 | I -0.558 ± 0.086 | C -0.395 ± 0.042 | G -0.193 ± 0.028 | M -0.319 ± 0.05 | A -0.083 ± 0.017 | W -0.767 ± 0.047 | N -0.228 ± 0.044 | T -0.118 ± 0.028 | V -0.258 ± 0.024 | Y -0.848 ± 0.1 | P -0.254 ± 0.035 | L -0.378 ± 0.025 | S -0.128 ± 0.021 | R -0.03 ± 0.024 | E -0.119 ± 0.034
N25: M -0.014 ± 0.045 | E -0.168 ± 0.037 | F -0.078 ± 0.048 | A -0.007 ± 0.033 | L -0.089 ± 0.026 | H -0.055 ± 0.046 | D -0.08 ± 0.047 | I -0.088 ± 0.083 | S -0.05 ± 0.028 | Q -0.133 ± 0.033 | W -0.443 ± 0.03 | C -0.066 ± 0.03 | P -0.307 ± 0.033 | K -0.258 ± 0.039 | G -0.139 ± 0.03 | Y -0.036 ± 0.084
